Patent US20130336893A1 (Sanofi, published 2013)
*1 amine or outer side, *2 acyl side, *3 side chain or, on linkers, in order; H or OH if unused. Where no end group is shown, it is not given here. Side-chain parts run from the residue outwards. [ ]: non-standard residue; d: D form. The star is where a group is joined. γGlu = O=C(O)[C@H](CCC(=O)[*:2])N[*:1]; Palmitoyl = CCCCCCCCCCCCCCCC(=O)*; Propionyl = CCC(=O)*; βAla = NCCC(=O)O

What was measured:
human GLP-1 receptor = human GLP-1 receptor (human, UniProt P43220 24-463); assay: cell-based or functional assay
human glucagon receptor = human glucagon receptor (human, UniProt P47871 26-477); assay: cell-based or functional assay
Sequence of human glucagon receptor (P47871 26-477): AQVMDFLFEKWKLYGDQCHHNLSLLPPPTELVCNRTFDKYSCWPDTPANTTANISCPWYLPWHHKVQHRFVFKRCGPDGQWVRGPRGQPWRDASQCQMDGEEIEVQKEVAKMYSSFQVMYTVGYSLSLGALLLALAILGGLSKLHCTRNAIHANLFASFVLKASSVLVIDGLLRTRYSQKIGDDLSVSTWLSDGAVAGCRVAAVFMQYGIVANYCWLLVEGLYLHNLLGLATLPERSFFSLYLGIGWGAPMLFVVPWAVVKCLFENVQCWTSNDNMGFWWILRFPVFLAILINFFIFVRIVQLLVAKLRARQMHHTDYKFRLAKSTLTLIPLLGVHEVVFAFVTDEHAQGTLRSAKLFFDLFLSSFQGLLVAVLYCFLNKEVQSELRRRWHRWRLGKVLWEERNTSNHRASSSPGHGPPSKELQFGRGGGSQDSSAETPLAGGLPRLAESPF

Binder	EC50 hGLP-1R (cAMP formation) (human GLP-1 receptor)	EC50 hGlucagonR (cAMP formation) (human glucagon receptor)
H[dS]QGTFTSDLSKQMESRRAQDFIEWLKEGGPSSGKPPPSK([γGlu-Palmitoyl])-NH2 (N-terminus assumed; SMILES CCCCCCCCCCCCCCCC(=O)N[C@@H](CCC(=O)NCCCC[C@H](NC(=O)[C@H](CO)NC(=O)[C@@H]1CCCN1C(=O)[C@@H]1CCCN1C(=O)[C@@H]1CCCN1C(=O)[C@H](CCCCN)NC(=O)CNC(=O)[C@H](CO)NC(=O)[C@H](CO)NC(=O)[C@@H]1CCCN1C(=O)CNC(=O)CNC(=O)[C@H](CCC(=O)O)NC(=O)[C@H](CCCCN)NC(=O)[C@H](CC(C)C)NC(=O)[C@H](Cc1c[nH]c2ccccc12)NC(=O)[C@H](CCC(=O)O)NC(=O)[C@@H](NC(=O)[C@H](Cc1ccccc1)NC(=O)[C@H](CC(=O)O)NC(=O)[C@H](CCC(N)=O)NC(=O)[C@H](C)NC(=O)[C@H](CCCNC(=N)N)NC(=O)[C@H](CCCNC(=N)N)NC(=O)[C@H](CO)NC(=O)[C@H](CCC(=O)O)NC(=O)[C@H](CCSC)NC(=O)[C@H](CCC(N)=O)NC(=O)[C@H](CCCCN)NC(=O)[C@H](CO)NC(=O)[C@H](CC(C)C)NC(=O)[C@H](CC(=O)O)NC(=O)[C@H](CO)NC(=O)[C@@H](NC(=O)[C@H](Cc1ccccc1)NC(=O)[C@@H](NC(=O)CNC(=O)[C@H](CCC(N)=O)NC(=O)[C@@H](CO)NC(=O)[C@@H](N)Cc1c[nH]cn1)[C@@H](C)O)[C@@H](C)O)[C@@H](C)CC)C(N)=O)C(=O)O) [SEQ ID NO: (104)]	0.0073 nM	0.0287 nM
H[dS]QGTFTSDLSKQMESRRAQDFIEWLKSGGPSSGAPPPSK([βAla-βAla-Palmitoyl])-NH2 (N-terminus assumed; SMILES CCCCCCCCCCCCCCCC(=O)NCCC(=O)NCCC(=O)NCCCC[C@H](NC(=O)[C@H](CO)NC(=O)[C@@H]1CCCN1C(=O)[C@@H]1CCCN1C(=O)[C@@H]1CCCN1C(=O)[C@H](C)NC(=O)CNC(=O)[C@H](CO)NC(=O)[C@H](CO)NC(=O)[C@@H]1CCCN1C(=O)CNC(=O)CNC(=O)[C@H](CO)NC(=O)[C@H](CCCCN)NC(=O)[C@H](CC(C)C)NC(=O)[C@H](Cc1c[nH]c2ccccc12)NC(=O)[C@H](CCC(=O)O)NC(=O)[C@@H](NC(=O)[C@H](Cc1ccccc1)NC(=O)[C@H](CC(=O)O)NC(=O)[C@H](CCC(N)=O)NC(=O)[C@H](C)NC(=O)[C@H](CCCNC(=N)N)NC(=O)[C@H](CCCNC(=N)N)NC(=O)[C@H](CO)NC(=O)[C@H](CCC(=O)O)NC(=O)[C@H](CCSC)NC(=O)[C@H](CCC(N)=O)NC(=O)[C@H](CCCCN)NC(=O)[C@H](CO)NC(=O)[C@H](CC(C)C)NC(=O)[C@H](CC(=O)O)NC(=O)[C@H](CO)NC(=O)[C@@H](NC(=O)[C@H](Cc1ccccc1)NC(=O)[C@@H](NC(=O)CNC(=O)[C@H](CCC(N)=O)NC(=O)[C@@H](CO)NC(=O)[C@@H](N)Cc1c[nH]cn1)[C@@H](C)O)[C@@H](C)O)[C@@H](C)CC)C(N)=O) [SEQ ID NO: (98)]	0.0051 nM	0.0146 nM
HSQGTFTSDLSKQMEERRAKDFIEWLKNGGPSSGAPPPS-NH2 [SEQ ID NO: (16)]	0.0076 nM	2.13 nM
H[dS]QGTFTSDLSKQMEEEAAQDFIEWLKAGGPSSGAPPPSK([γGlu-Palmitoyl])-NH2 (N-terminus assumed; SMILES CCCCCCCCCCCCCCCC(=O)N[C@@H](CCC(=O)NCCCC[C@H](NC(=O)[C@H](CO)NC(=O)[C@@H]1CCCN1C(=O)[C@@H]1CCCN1C(=O)[C@@H]1CCCN1C(=O)[C@H](C)NC(=O)CNC(=O)[C@H](CO)NC(=O)[C@H](CO)NC(=O)[C@@H]1CCCN1C(=O)CNC(=O)CNC(=O)[C@H](C)NC(=O)[C@H](CCCCN)NC(=O)[C@H](CC(C)C)NC(=O)[C@H](Cc1c[nH]c2ccccc12)NC(=O)[C@H](CCC(=O)O)NC(=O)[C@@H](NC(=O)[C@H](Cc1ccccc1)NC(=O)[C@H](CC(=O)O)NC(=O)[C@H](CCC(N)=O)NC(=O)[C@H](C)NC(=O)[C@H](C)NC(=O)[C@H](CCC(=O)O)NC(=O)[C@H](CCC(=O)O)NC(=O)[C@H](CCC(=O)O)NC(=O)[C@H](CCSC)NC(=O)[C@H](CCC(N)=O)NC(=O)[C@H](CCCCN)NC(=O)[C@H](CO)NC(=O)[C@H](CC(C)C)NC(=O)[C@H](CC(=O)O)NC(=O)[C@H](CO)NC(=O)[C@@H](NC(=O)[C@H](Cc1ccccc1)NC(=O)[C@@H](NC(=O)CNC(=O)[C@H](CCC(N)=O)NC(=O)[C@@H](CO)NC(=O)[C@@H](N)Cc1c[nH]cn1)[C@@H](C)O)[C@@H](C)O)[C@@H](C)CC)C(N)=O)C(=O)O) [SEQ ID NO: (108)]	0.0021 nM	0.541 nM
H[dS]QGTFTSDLSKQMESRRAQDFIEWLKSGGPSSGAPPPSK(6‑((4,4-diphenyl-cyclohexyloxy)-hydroxy-phosphoryloxy)‑hexanoyl)-NH2 [SEQ ID NO: (107)]	0.009 nM	5.16 nM
H[dS]QGTFTSDLSKQMESRRAQDFIEWLKSGGPSSGAPPPSK(Ac)-NH2 [SEQ ID NO: (105)]	0.142 nM	0.614 nM
H[dS]QGTFTSDLSKQMESRRAQDFIEWLKSGGPSSGAPPPSK([γGlu-Propionyl])-NH2 [SEQ ID NO: (106)]	0.315 nM	1.32 nM
H[dS]QGTFTSDLSKQMESRAAQDFIEWLKSGGPSSGAPPPSK([γGlu-Palmitoyl])-NH2 (N-terminus assumed; SMILES CCCCCCCCCCCCCCCC(=O)N[C@@H](CCC(=O)NCCCC[C@H](NC(=O)[C@H](CO)NC(=O)[C@@H]1CCCN1C(=O)[C@@H]1CCCN1C(=O)[C@@H]1CCCN1C(=O)[C@H](C)NC(=O)CNC(=O)[C@H](CO)NC(=O)[C@H](CO)NC(=O)[C@@H]1CCCN1C(=O)CNC(=O)CNC(=O)[C@H](CO)NC(=O)[C@H](CCCCN)NC(=O)[C@H](CC(C)C)NC(=O)[C@H](Cc1c[nH]c2ccccc12)NC(=O)[C@H](CCC(=O)O)NC(=O)[C@@H](NC(=O)[C@H](Cc1ccccc1)NC(=O)[C@H](CC(=O)O)NC(=O)[C@H](CCC(N)=O)NC(=O)[C@H](C)NC(=O)[C@H](C)NC(=O)[C@H](CCCNC(=N)N)NC(=O)[C@H](CO)NC(=O)[C@H](CCC(=O)O)NC(=O)[C@H](CCSC)NC(=O)[C@H](CCC(N)=O)NC(=O)[C@H](CCCCN)NC(=O)[C@H](CO)NC(=O)[C@H](CC(C)C)NC(=O)[C@H](CC(=O)O)NC(=O)[C@H](CO)NC(=O)[C@@H](NC(=O)[C@H](Cc1ccccc1)NC(=O)[C@@H](NC(=O)CNC(=O)[C@H](CCC(N)=O)NC(=O)[C@@H](CO)NC(=O)[C@@H](N)Cc1c[nH]cn1)[C@@H](C)O)[C@@H](C)O)[C@@H](C)CC)C(N)=O)C(=O)O) [SEQ ID NO: (103)]	0.0037 nM	0.0459 nM
H[dS]QGTFTSDLSKQMESEAAQDFIEWLKAGGPSSGAPPPSK([γGlu-Palmitoyl])-NH2 (N-terminus assumed; SMILES CCCCCCCCCCCCCCCC(=O)N[C@@H](CCC(=O)NCCCC[C@H](NC(=O)[C@H](CO)NC(=O)[C@@H]1CCCN1C(=O)[C@@H]1CCCN1C(=O)[C@@H]1CCCN1C(=O)[C@H](C)NC(=O)CNC(=O)[C@H](CO)NC(=O)[C@H](CO)NC(=O)[C@@H]1CCCN1C(=O)CNC(=O)CNC(=O)[C@H](C)NC(=O)[C@H](CCCCN)NC(=O)[C@H](CC(C)C)NC(=O)[C@H](Cc1c[nH]c2ccccc12)NC(=O)[C@H](CCC(=O)O)NC(=O)[C@@H](NC(=O)[C@H](Cc1ccccc1)NC(=O)[C@H](CC(=O)O)NC(=O)[C@H](CCC(N)=O)NC(=O)[C@H](C)NC(=O)[C@H](C)NC(=O)[C@H](CCC(=O)O)NC(=O)[C@H](CO)NC(=O)[C@H](CCC(=O)O)NC(=O)[C@H](CCSC)NC(=O)[C@H](CCC(N)=O)NC(=O)[C@H](CCCCN)NC(=O)[C@H](CO)NC(=O)[C@H](CC(C)C)NC(=O)[C@H](CC(=O)O)NC(=O)[C@H](CO)NC(=O)[C@@H](NC(=O)[C@H](Cc1ccccc1)NC(=O)[C@@H](NC(=O)CNC(=O)[C@H](CCC(N)=O)NC(=O)[C@@H](CO)NC(=O)[C@@H](N)Cc1c[nH]cn1)[C@@H](C)O)[C@@H](C)O)[C@@H](C)CC)C(N)=O)C(=O)O) [SEQ ID NO: (109)]	0.0033 nM	0.277 nM
H[dS]QGTFTSDLSKQMESRRAQDFIEWLKSGGPSSGAPPPK([βAla-βAla-Palmitoyl])-NH2 (N-terminus assumed; SMILES CCCCCCCCCCCCCCCC(=O)NCCC(=O)NCCC(=O)NCCCC[C@H](NC(=O)[C@@H]1CCCN1C(=O)[C@@H]1CCCN1C(=O)[C@@H]1CCCN1C(=O)[C@H](C)NC(=O)CNC(=O)[C@H](CO)NC(=O)[C@H](CO)NC(=O)[C@@H]1CCCN1C(=O)CNC(=O)CNC(=O)[C@H](CO)NC(=O)[C@H](CCCCN)NC(=O)[C@H](CC(C)C)NC(=O)[C@H](Cc1c[nH]c2ccccc12)NC(=O)[C@H](CCC(=O)O)NC(=O)[C@@H](NC(=O)[C@H](Cc1ccccc1)NC(=O)[C@H](CC(=O)O)NC(=O)[C@H](CCC(N)=O)NC(=O)[C@H](C)NC(=O)[C@H](CCCNC(=N)N)NC(=O)[C@H](CCCNC(=N)N)NC(=O)[C@H](CO)NC(=O)[C@H](CCC(=O)O)NC(=O)[C@H](CCSC)NC(=O)[C@H](CCC(N)=O)NC(=O)[C@H](CCCCN)NC(=O)[C@H](CO)NC(=O)[C@H](CC(C)C)NC(=O)[C@H](CC(=O)O)NC(=O)[C@H](CO)NC(=O)[C@@H](NC(=O)[C@H](Cc1ccccc1)NC(=O)[C@@H](NC(=O)CNC(=O)[C@H](CCC(N)=O)NC(=O)[C@@H](CO)NC(=O)[C@@H](N)Cc1c[nH]cn1)[C@@H](C)O)[C@@H](C)O)[C@@H](C)CC)C(N)=O) [SEQ ID NO: (100)]	0.0096 nM	0.0166 nM
